We go through six molecules from US20210093695A1, “Method” (APITOPE TECHNOLOGY (BRISTOL) LIMITED, priority 2017, published 2021).

One assay concerns HLA-DQ6. Kind of assay: HLA-DQ6 binding of MBP peptides. Also noted: species or system human.
Another assay concerns the target HLA-DR2 (Homo sapiens, UniProt P01903+P01911). Kind of assay: HLA-DR2 binding of MBP peptides.
The test system of assay [1] is double-transgenic (DTg; human HLA-DR15/MBP-specific T-cell receptor) humanized mice. Kind of assay: SCH-induced EAE in double-transgenic humanized mice, clinical score. The note with it: once weekly from Day 0; ATX-MS-1467 100 μg/dose, MBP82-98 12 μg or 100 μg/dose. The format is in vivo, mouse. How it is done:
In double-transgenic (DTg; human HLA-DR15/MBP-specific T-cell receptor) ‘humanized’ mice, EAE was induced using an emulsification of spinal cord homogenate (SCH) and CFA on Day 0. Mice also received a pertussis toxin injection on Days 0 and 2.
Throughout the study, neurological deficits were measured using a standardized clinical score scale: 0=no clinical signs, 1=limp tail, 2=impaired righting reflex, 3=partial hind limb paralysis, 4=complete hind limb paralysis, 5=moribund/death.
If animals reached a score of 4 they were euthanized to reach a humane endpoint.
[…] were treated prophylactically either with subcutaneous (sc) phosphate-buffered saline (PBS) vehicle or ATX-MS-1467 (n=10 per treatment group) starting 3 weeks before EAE induction. […]
ATX-MS-1467 was tested head-to-head with MBP82-98 and GA. […] For both compounds, the human equivalent dose (HED) was calculated based on body surface area: MBP82-98=12 μg/dose and GA=75 μg (3.75 mg/kg)/dose.
Statistical analyses for significant differences on clinical scores by treatment over time and cumulative clinical scores (area under the curve) were performed using Kruskal-Wallis with Dunn's post hoc analysis of comparisons. Disease onset was analyzed by Kaplan-Meier curve and significance was determined using the log-rank (Mantel-Cox) test. Cellular brain infiltrates were analyzed by Student's t-test. […]

The subject of the next assay is DR2/Ob1Het/Het mice. Kind of assay: Serum cytokine levels after s.c. treatment/challenge (Milliplex). It counts as in vivo, mouse. How it is done:
Double transgenic heterozygous mice, referred to here as DR2/Ob1Het/Het, were used for these studies. These mice express human leukocyte antigen (HLA) isotypes DRA*0101 and DRB1*1501 under the mouse major histocompatibility […] promoter and the MBP84-102-specific TCR (Ob.1A12) expressed under mouse TCRα and β promoter/enhancer elements.
DR2/Ob1Het/Het mice were treated and/challenged by a single or multiple subcutaneous (s.c.) injections of 100 μg of ATX-MS-1467 or 25 μg of a HLA binding protein (HLAbp) unrelated to EAE and/or 30-1000 μg of myelin basic protein (MBP, Sigma, M1891). Treatment paradigms varied between studies and groups (see specifics in each study). Chronic treatment with ATX-MS-1467 or with HLAbp followed a 3× weekly regimen.
Cytokine levels were quantified in serum of DR2/Ob1Het/Het mice at different time points using a Milliplex MAP mouse Cytokine/Chemokine magnetic kit (MCYTOMAG-70-PMX).

Sequence of HLA-DR2 (P01903 26-254): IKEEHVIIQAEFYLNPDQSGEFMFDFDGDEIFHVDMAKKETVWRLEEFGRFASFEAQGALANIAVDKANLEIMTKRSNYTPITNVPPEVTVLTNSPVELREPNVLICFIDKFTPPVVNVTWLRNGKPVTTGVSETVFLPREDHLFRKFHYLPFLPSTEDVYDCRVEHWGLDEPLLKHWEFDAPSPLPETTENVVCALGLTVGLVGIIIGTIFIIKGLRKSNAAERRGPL
Sequence of HLA-DR2 (P01911 30-266): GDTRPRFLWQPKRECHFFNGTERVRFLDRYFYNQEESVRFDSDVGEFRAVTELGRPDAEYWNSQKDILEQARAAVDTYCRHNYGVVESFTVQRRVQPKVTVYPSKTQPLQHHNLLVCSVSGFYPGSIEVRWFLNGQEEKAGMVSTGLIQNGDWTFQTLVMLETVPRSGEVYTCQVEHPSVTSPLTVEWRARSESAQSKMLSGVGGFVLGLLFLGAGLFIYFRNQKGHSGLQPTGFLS

On to “H-Ala-Ser-Asp-Tyr-Lys-Ser-Ala-His-Lys-Gly-Phe-Lys-Gly-Val-Asp-NH2 (H-ASDYKSAHKGFKGVD-NH2) [MBP 131-145]”, for which the HLA-DQ6 binding entry in the assay with HLA-DQ6 is given as “HLA-DQ6 binding”. As for “H-Glu-Asn-Pro-Val-Val-His-Phe-Phe-Lys-Asn-Ile-Val-Thr-Pro-Arg-Thr-Pro-NH2 (H-ENPVVHFFKNIVTPRTP-NH2) [MBP 83-99]”, the HLA-DR2 binding entry with HLA-DR2 is “HLA-DR2 binding”. As to “H-Gly-Phe-Lys-Gly-Val-Asp-Ala-Gln-Gly-Thr-Leu-Ser-Lys-Ile-Phe-NH2 (H-GFKGVDAQGTLSKIF-NH2) [MBP 140-154]”, the HLA-DR2 binding entry in the assay with HLA-DR2 is “HLA-DR2 binding”. For the molecule “H-Pro-Arg-His-Arg-Asp-Thr-Gly-Ile-Leu-Asp-Ser-Ile-Gly-Arg-Phe-NH2 (H-PRHRDTGILDSIGRF-NH2) [MBP 30-44]”, the HLA-DQ6 binding result in the assay with HLA-DQ6 is reported as “HLA-DQ6 binding”.

Consider “MBP82-98: 17-amino acid synthetic peptide identical to MBP (dirucotide)”, for which, in assay [1], the “disease severity vs vehicle” value is listed as “did not show significant effects”.

B1: MBP: myelin basic protein (MBP, Sigma, M1891), full length (protein, UniProt P02686 1-304, looked up)
Myelin basic protein: MGNHAGKRELNAEKASTNSETNRGESEKKRNLGELSRTTSEDNEVFGEADANQNNGTSSQDTAVTDSKRTADPKNAWQDAHPADPGSRPHLIRLFSRDAPGREDNTFKDRPSESDELQTIQEDSAATSESLDVMASQKRPSQRHGSKYLATASTMDHARHGFLPRHRDTGILDSIGRFFGGDRGAPKRGSGKDSHHPARTAHYGSLPQKSHGRTQDENPVVHFFKNIVTPRTPPPSQGKGRGLSLSRFSWGAEGQRPGFGYGGRASDYKSAHKGFKGVDAQGTLSKIFKLGGRDSRSGSPMARR
Turning to B1, in the assay on DR2/Ob1Het/Het mice (2 h after s.c. injection, 30-1000 μg), the “dose dependence of serum cytokine secretion” value was “dose-dependent secretion of cytokines”. Further, in the assay with DR2/Ob1Het/Het mice (single s.c. injection, FIG. 4 (MBP), FIG. 5 (ATX-MS-1467 100 μg/mouse)), the “cytokine secretion in the blood after acute treatment” value was “induces the secretion of both pro and anti-inflammatory cytokines”.
